Assay results taken from article PMC4477663 (Nucleic Acids Research, 2015).

Legend:
Assay in all cases: pull-down
[1] = molecular target: recombinant APE1 C65S+C99S (UniProt P27695 1-318, C65S | C99S)
recombinant APE1 C99S = recombinant APE1 C99S (UniProt P27695 1-318, C99S)
recombinant APE1 C65S = recombinant APE1 C65S (UniProt P27695 1-318, C65S)
Sequence of recombinant APE1 C65S (P27695 whole entry C65S): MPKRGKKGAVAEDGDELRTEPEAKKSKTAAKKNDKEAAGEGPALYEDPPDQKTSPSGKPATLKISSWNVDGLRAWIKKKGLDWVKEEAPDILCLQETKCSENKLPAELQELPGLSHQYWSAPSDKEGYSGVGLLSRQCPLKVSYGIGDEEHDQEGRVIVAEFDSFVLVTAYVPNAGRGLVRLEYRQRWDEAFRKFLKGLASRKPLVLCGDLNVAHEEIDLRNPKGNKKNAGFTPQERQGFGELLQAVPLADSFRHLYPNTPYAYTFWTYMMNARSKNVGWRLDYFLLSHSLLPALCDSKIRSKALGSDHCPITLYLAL

Sequence of recombinant APE1 C65S+C99S (P27695 whole entry C65S/C99S): as the sequence (P27695 whole entry C65S) above, with C99S counted along it
Sequence of recombinant APE1 C99S (P27695 whole entry C99S): as the sequence (P27695 whole entry C65S) above, with S65C, C99S counted along it

- binding result [1]: binds
- binding result (recombinant APE1 C99S): binds
- binding result (recombinant APE1 C65S): binds
B1: recombinant GST-Mia40 wild type (natural protein, human, UniProt Q8N4Q1 1-142, looked up)
chain: MSYCRQEGKDRIIFVTKEDHETPSSAELVADDPNDPYEEHGLILPNGNINWNCPCLGGMASGPCGEQFKSAFSCFHYSTEEIKGSDCVDQFRAMQECMQKYPDLYPQEDEDEEEEREKKPAEQAEETAPIEATATKEEEGSS
